According to paper PMC11681983 (Biochemistry Research International, 2024):

B1: D2-Fc, a fusion protein with D2 fused to the N-terminus of an Fc (Fc fusion)
chain: SDTGRPFVEMYSEIPEIIHMTEGRELVIPCRVTSPNITVTLKKFPLDTLIPDGKRIIWDSRKGFIISNATYKEIGLLTCEATVNGHLYKTNYLTHRQTNTIID
modifications: Limits are not printed. VEGFR1 D2 is taken as S129-D231, the aflibercept / Flt1 D2 convention. The Fc carrier is omitted; two copies assume an Fc dimer. The printed clip site M464/Y465 (fusion …)
B2: bispecific fusion protein 17V05 (bispecific antibody, V domains shown)
VH: EVQLVESGGGLVQPGGSLRLSCAASGFTFSSFDMSWGRQAPGKRLEWVAFMSSGGSTYYPDSVKGRFTISRDNSKNTLYLQMNSLRAEDTAVYYCARGERYGSYWGQGTLVTVSS
VL: DIQMTQSPSSLSASVGDRVTITCKASDHINNWLAWYQQKPGKAPKLLISGATSLETGVPSRFSGSGSGTDYTLTISSLQPEDFATYYCQQYWSTPFTFGSGTKLEIK
notes: heavy chain of the clinical stage anti-IL-17A mAb 608 (Sunshine Guojian Pharmaceutical); linker, printed as (G4S) x 3; light chain of the anti-IL-17A mAb 608; Variant of 17V01 with M464A in D2; Two copies of D2, one at the C-terminus of each heavy chain of 608; also called bispecific anti-IL17/VEGF fusion trap; source: 293HEK cells, one-step purification with protein A chromatography (told of the …)

What was measured:
Conditions in all cases: both partners purified
VEGF = target: T1, VEGF (UniProt P15692 1-395); experiment: ELISA; direct binding ELISA to IL-17A or VEGF, measured in duplicate, n = 2; who was coated is not told
T1 construct: vascular endothelial growth factor (VEGF); Probably VEGF165 (surmised); also called vascular endothelial growth factor

IL-17A [1] = target: T2, IL-17A (human, UniProt Q16552); experiment: SPR; Biacore, n = 3
T2 construct: IL-17A

IL-17A [2] = target: T2, IL-17A; experiment: ELISA; ELISA-based assay of blocking the interaction of IL-17A with IL-17RA, in duplicate, n = 3
IL-17A [3] = target: T2, IL-17A; experiment: ELISA; direct binding ELISA to IL-17A or VEGF, measured in duplicate, n = 2; who was coated is not told

T2 sequence (Q16552 24-155): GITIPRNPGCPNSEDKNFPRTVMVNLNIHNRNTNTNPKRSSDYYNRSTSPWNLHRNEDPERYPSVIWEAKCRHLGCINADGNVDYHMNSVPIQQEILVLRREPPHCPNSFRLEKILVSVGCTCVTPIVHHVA
T1 sequence (P15692 whole entry): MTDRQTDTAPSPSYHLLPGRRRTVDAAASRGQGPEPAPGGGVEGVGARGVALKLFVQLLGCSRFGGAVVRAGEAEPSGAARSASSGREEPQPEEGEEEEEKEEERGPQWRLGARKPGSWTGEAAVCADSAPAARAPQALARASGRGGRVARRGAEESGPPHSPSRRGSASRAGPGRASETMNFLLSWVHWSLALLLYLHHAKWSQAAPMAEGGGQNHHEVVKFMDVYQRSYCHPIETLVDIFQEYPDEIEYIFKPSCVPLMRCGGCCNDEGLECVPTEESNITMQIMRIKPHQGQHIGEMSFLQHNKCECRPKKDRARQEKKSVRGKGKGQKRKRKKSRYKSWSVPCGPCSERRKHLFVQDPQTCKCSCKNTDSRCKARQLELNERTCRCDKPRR

Binder | EC50 (VEGF) [pM] | Kd (IL-17A [1]) [pM] | IC50 (IL-17A [2]) [pM] | EC50 (IL-17A [3]) [pM]
B1 | 390 |  |  | 
B2 |  | 18.4 | 2770 | 50
